Assays:
MgrA [1] = target: T1, MgrA (Staphylococcus aureus LAC, UniProt P0C1S0 1-147); assay: competition; 10-fold excess over labeled Pebh; conditions: protein: recombinant; tags: His6-MBP removed by Tev cleavage (untagged; possible linker residues); chain copies: 2; blunt
T1 sequence: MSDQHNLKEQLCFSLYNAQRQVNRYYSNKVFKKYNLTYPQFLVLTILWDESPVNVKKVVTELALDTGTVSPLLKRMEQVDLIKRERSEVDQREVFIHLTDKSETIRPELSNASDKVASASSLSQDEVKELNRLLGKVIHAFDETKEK

MgrA [2] = target: T1, MgrA; assay: competition; 10-fold excess over labeled sraP P2 probe; conditions: protein: recombinant; tags: His6-MBP removed by Tev cleavage (untagged; possible linker residues); chain copies: 2; blunt
MgrA [3] = target: T1, MgrA; assay: EMSA; 0-2 uM MgrA, 50 nM probe; dose-dependent; conditions: protein: recombinant; tags: His6-MBP removed by Tev cleavage (untagged; possible linker residues); chain copies: 2; label: IRDye 700 on HC346; blunt
MgrA [4] = target: T1, MgrA; assay: EMSA; 0-2 uM MgrA, 50 nM probe; conditions: protein: recombinant; tags: His6-MBP removed by Tev cleavage (untagged; possible linker residues); chain copies: 2; label: IRDye 700 at one end (HC487); blunt

B1: non-specific competitor NSP (sraP probe 6) (dsDNA)
DNA 1: CTGGAAAAAATTGGGTAAAATCCGGAATTAAAGAAATAGAAATGTTCAAA
DNA 2: TTTGAACATTTCTATTTCTTTAATTCCGGATTTTACCCAATTTTTTCCAG
B1: no binding (MgrA [1]).

B2: sraP mutated competitor MP (sraP probe5 mut) (dsDNA)
DNA 1: TTTGTAGATGTCAAGCACCTCATTAAATTGAATAGTGGCATATATTATAA
DNA 2: TTATAATATATGCCACTATTCAATTTAATGAGGTGCTTGACATCTACAAA
B2: no binding (MgrA [2]).

B3: sraP P2 probe (sraP probe5) (dsDNA)
DNA 1: TTTGTATCAAAAAAGAGTTGTATTAAATTGAATAGTGGCATATATTATAA
DNA 2: TTATAATATATGCCACTATTCAATTTAATACAACTCTTTTTTGATACAAA
B3: binds (MgrA [3]).

B4: sraP specific competitor SP (dsDNA)
DNA 1: B3 DNA 1
DNA 2: B3 DNA 2
B4: binds (MgrA [2]).

B5: Pebh probe (ebh probe2) (dsDNA)
DNA 1: GAGCATAAATAAATTGTTCAACACATAGTTGTAATGTGTTTCAATACTTT
DNA 2: AAAGTATTGAAACACATTACAACTATGTGTTGAACAATTTATTTATGCTC
B5: binds (MgrA [4]).

B6: ebh specific competitor SP (dsDNA)
DNA 1: B5 DNA 1
DNA 2: B5 DNA 2
B6: binds (MgrA [1]).
